In article PMC8512817, “Domain Analysis and Motif Matcher (DAMM): A Program to Predict Selectivity Determinants in Monosiga brevicollis PDZ Domains Using Human PDZ Data” (Molecules, 2021):

Molecular target: T1, DLG1-1 PDZ (DLG1 PDZ1, residues 220-317) (human, UniProt Q12959 220-317)
T1 construct: not shown: His tag, N-terminal, kept
Assay: fluorescence polarisation
Settings: both partners purified

T1 sequence (Q12959 220-317): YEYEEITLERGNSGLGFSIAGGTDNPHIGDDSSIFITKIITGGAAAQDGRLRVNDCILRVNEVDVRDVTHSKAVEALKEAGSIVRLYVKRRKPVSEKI

WDETNL [BPIX peptide (WDETNL)]
Ki: 460 ± 140 µM

ESESKV [GIRK3 peptide (ESESKV)]
Ki: 350 ± 20 µM

ASESKV [B1AR peptide (ASESKV)]
Ki: 44 ± 23 µM

QSSSEA [GAIP peptide (QSSSEA)]
Ki: 980 ± 180 µM

EDETAL [A9V7Z4 peptide (EDETAL)]
Ki: 460 ± 190 µM

QDETAL [A9UXE1 peptide (QDETAL)]
Ki: 190 ± 20 µM

SSRTRRETQL [HPV16 E6 peptide (SSRTRRETQL)]
Ki: 23 ± 5 µM

QSESRL [A9UP44 peptide (QSESRL)]
Ki: 39 ± 25 µM

PNQSVV [TYRP1 peptide (PNQSVV)]
Ki: 46 ± 21 µM
